Laboratory results as given in PMC10747570.

Molecular target: Hibiscus green spot virus movement protein BMB2 (Hibiscus green spot virus)
Test: FRET or BRET; FRET-FLIM: GFP fluorescence lifetime measured in PAMBs of N. benthamiana leaf cells coexpressing BMB2-GFP (donor) and BMB2-mRFP (acceptor), 3 dpi; control without acceptor: BMB2-GFP with non-fused BMB2

Hibiscus green spot virus movement protein BMB2 (natural protein)
FRET efficiency: 69.8%
GFP excited-state lifetime with the acceptor: 0.74 ns
